{"source": "patent US20110189154A1", "about": "(published 2011)", "target": "T1, Tsa1 (S. cerevisiae 2-Cys peroxyredoxin) (S. cerevisiae, UniProt P34760 2-196)", "T1 construct": "Endogenous yeast protein after H2O2 treatment of the cells; also called Tsa1 protein", "T1 sequence (looked up)": "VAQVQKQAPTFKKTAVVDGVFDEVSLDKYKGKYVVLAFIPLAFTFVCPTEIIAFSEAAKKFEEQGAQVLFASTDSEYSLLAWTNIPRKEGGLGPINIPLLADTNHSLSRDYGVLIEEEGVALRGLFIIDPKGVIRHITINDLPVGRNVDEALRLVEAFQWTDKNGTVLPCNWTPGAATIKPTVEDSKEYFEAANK", "test": "Western blot of Srx1-HA after nonreducing/reducing SDS-PAGE (FIG. 7a)", "experimental": "FIG. 7 illustrates the interaction between Tsa1 and Srx1 in a covalent (disulfide bridge) and noncovalent manner; FIG. 7a: Western blotting of the HA-tagged Srx1 protein (lanes 1, 2 and 3) or of HA-tagged Srx1^C84S (lane 4) expressed in a wild-type strain (WT) (lanes 1, 2, 4) or in Δtsa1 cells (lane 3) treated for 15 min with H₂O₂ (500 μM), after SDS-PAGE electrophoresis carried out under reducing (R) (lane 2) or nonreducing (NR) (lanes 1, 3, 4) conditions; FIG. 7b: the proteins copurified with the Srx1 tagged with 6His (lanes 2, 4) or the untagged Srx1 (lanes 1, 3) under nonreducing conditions are separated by SDS-PAGE under nonreducing (lanes 1, 2) or reducing (lanes 3, 4) conditions and visualized by Coomassie blue staining. The protein bands are identified by MALDI-TOF mass spectrometry as indicated;\n(A) Cells containing a tagged (HA) copy of the Srx1 protein are treated with 500 μM of H₂O₂ for 15 minutes. […]", "data": [{"binder": "Srx1-HA (S. cerevisiae Srx1 with two HA epitopes at the C-terminal) (enzyme, not shown: small tags and cut ends, Two HA epitopes fused at the C-terminal of Srx1 (letters not given, left out). In the assay Cys84 forms an intermolecular disulfide bridge with Tsa1., also called HA-tagged Srx1 protein) MSLQSNSVKPTEIPLSEIRRPLAPVLDPQKIDAMVATMKGIPTASKTCSLEQAEAAASAGELPPVDVLGVRVKGQTLYYAFGGCHRLQAYDRRARETQNAAFPVRCRVLPATPRQIRMYLGSSLDIE", "values": [{"measurement": "binding result", "value": "binds"}]}]}
